The source of these data is patent US20110021367A1 (INDIAN INSTITUTE OF SCIENCE, published 2011).

To fix the notation:
B1: σ^L 1-177 (Mycobacterium tuberculosis sigma factor L, Rv0735), N-term His-tag (other)
chain: MARVSGAAAAEAALMRALYDEHAAVLWRYALRLTGDAAQAEDVVQETLLRAWQHPEVIGDTARPARAWLFTVARNMIIDERRSARFRNVVGSTDQSGTPEQSTPDEVNAALDRLLIADALAQLSAEHRAVIQRSYYRGWSTAQIATDLGIAEGTVKSRLHYAVRALRLTLQELGVTR
notes: range 1-177; also called SigL; Mtb σ^L; not shown: N-terminal His-tag from pET-Duet1 MCS1
B2: apo-RslA 1-108 (Zn2+ free, oxidized N-terminal domain of M. tuberculosis RslA), N-term His-tag (other)
chain: MTMPLRGLGPPDDTGVREVSTGDDHHYAMWDAAYVLGALSAADRREFEAHLAGCPECRGAVTELCGVPALLSQLDRDEVAAISESAPTVVASGLSPELLPSLLAAVHR
modifications: Zn2+ removed with H2O2 and TPEN; oxidized, one disulfide bond
notes: range 1-108; Same polypeptide as holo-RslA; for SPR made on the chip by passing 10 mM H2O2 and 2 mM TPEN over immobilized RslA; also called Zn^2+ free RslA; oxidized RslA; not shown: N-terminal His-tag from pET-Duet1 MCS1

Series [1] deals with B2. The series can be described thus: SPR (BIACORE 2000), immobilized RslA freed of Zn2+ with H2O2/TPEN, σ^L as analyte.
Series [2] deals with the molecule itself. The series can be described thus: analytical gel filtration; dynamic light scattering.
In series [3] the target is B1. The series can be described thus: SPR (BIACORE 2000), immobilized RslA freed of Zn2+ with H2O2/TPEN, σ^L as analyte.

Consider B1, for which the “fold reduction in affinity against Zn2+ bound RslA” value in series [1] is 7 fold.

On to B2, for which the binding result in series [2] is recorded as “binds”. The same molecule returned a Kd in series [3] of about 150 nM.
